The source of these data is paper PMC7806825.

The target in this test is Recombinant ligand-binding domain of McpC (amino acid residues 35-189) (Salmonella enterica serovar Typhimurium SL1344). In words: AUC; sedimentation velocity analytical ultracentrifugation (SV-AUC), done commercially (KBI BioPharma); purified McpC ligand-binding domain; dimers present at >=4 mg/mL; monomer to dimer.

What is called stoichiometry N is the number of molecules, sites or subunits per partner or assembly.

Regarding “Recombinant ligand-binding domain of McpC (amino acid residues 35-189) (domain or fragment)”, the stoichiometry N was 2.
